For one substance, Kd results are on record in paper PMC3807708.

Assay [1] concerns the target extracellular domain of human interferon-γ receptor 1 (IFN-γ-Rx), wild type (human) (UniProt P15260). Nature of the assay: SPR; His-tagged receptor immobilised on Ni2+-coated HTG chip; IFN-γ-SC as analyte; PBST; 35 °C; preliminary data of temperature dependency. (In general: In SPR one partner is held on a chip, and binding of the other changes the refractive index at the surface.)

Assay [2] has as its target extracellular domain of human interferon-γ receptor 1 (IFN-γ-Rx), mutant H222R (human) (UniProt P15260). The description is as above.
Assay [3] has as its target extracellular domain of human interferon-γ receptor 1 (IFN-γ-Rx), mutant S95R (human) (UniProt P15260). Described as above.
In assay [4] the target is extracellular domain of human interferon-γ receptor 1 (IFN-γ-Rx), mutant N96W (human) (UniProt P15260). The assay is described as above.
Assay [5] deals with extracellular domain of human interferon-γ receptor 1 (IFN-γ-Rx), mutant N70G (human) (UniProt P15260). The description is as above.
Assay [6] concerns the target extracellular domain of human interferon-γ receptor 1 (IFN-γ-Rx), wild type (human) (UniProt P15260). Nature of the assay: SPR; His-tagged receptor immobilised on Ni2+-coated HTG chip; IFN-γ-SC as analyte; PBST; 30 °C; preliminary data of temperature dependency.
The target in assay [7] is extracellular domain of human interferon-γ receptor 1 (IFN-γ-Rx), mutant H222R (human) (UniProt P15260). The assay is described as above.
Assay [8] addresses extracellular domain of human interferon-γ receptor 1 (IFN-γ-Rx), mutant S95R (human) (UniProt P15260). The assay is described as above.
Assay [9] deals with extracellular domain of human interferon-γ receptor 1 (IFN-γ-Rx), mutant N96W (human) (UniProt P15260). The assay is described as above.
For assay [10], the target named is extracellular domain of human interferon-γ receptor 1 (IFN-γ-Rx), mutant N70G (human) (UniProt P15260). Described as above.
Assay [11] has as its target extracellular domain of human interferon-γ receptor 1 (IFN-γ-Rx), wild type (human) (UniProt P15260). Nature of the assay: SPR; His-tagged receptor immobilised on Ni2+-coated HTG chip; IFN-γ-SC as analyte; PBST; 20 °C; preliminary data of temperature dependency.
The target in assay [12] is extracellular domain of human interferon-γ receptor 1 (IFN-γ-Rx), mutant H222R (human) (UniProt P15260). The assay is described as above.
Assay [13] addresses extracellular domain of human interferon-γ receptor 1 (IFN-γ-Rx), mutant S95R (human) (UniProt P15260). The description is as above.
Assay [14] deals with extracellular domain of human interferon-γ receptor 1 (IFN-γ-Rx), mutant N96W (human) (UniProt P15260). Described as above.
Assay [15] addresses extracellular domain of human interferon-γ receptor 1 (IFN-γ-Rx), mutant N70G (human) (UniProt P15260). Described as above.
Assay [16] deals with extracellular domain of human interferon-γ receptor 1 (IFN-γ-Rx), mutant H222R (human) (UniProt P15260). Nature of the assay: SPR; His-tagged receptor immobilised on Ni2+-coated HTG chip; IFN-γ-SC as analyte; PBST; 15 °C; preliminary data of temperature dependency.
Assay [17] has as its target extracellular domain of human interferon-γ receptor 1 (IFN-γ-Rx), mutant S95R (human) (UniProt P15260). The assay is described as above.
Assay [18] has as its target extracellular domain of human interferon-γ receptor 1 (IFN-γ-Rx), mutant N96W (human) (UniProt P15260). The assay is described as above.
For assay [19], the target named is extracellular domain of human interferon-γ receptor 1 (IFN-γ-Rx), wild type (human) (UniProt P15260). Nature of the assay: SPR; His-tagged receptor immobilised on Ni2+-coated HTG chip; IFN-γ-SC as analyte; PBST; 25 °C; preliminary data of temperature dependency.
The target of assay [20] is extracellular domain of human interferon-γ receptor 1 (IFN-γ-Rx), mutant H222R (human) (UniProt P15260). The assay is described as above.
Assay [21] concerns the target extracellular domain of human interferon-γ receptor 1 (IFN-γ-Rx), mutant S95R (human) (UniProt P15260). Described as above.
The target in assay [22] is extracellular domain of human interferon-γ receptor 1 (IFN-γ-Rx), mutant N96W (human) (UniProt P15260). Described as above.

As usually defined, the Kd is a measure of binding affinity in units of concentration. A lower Kd goes with a tighter complex.

For “single-chain form of human interferon-γ (IFN-γ-SC) (ligand)”, the Kd was 92.8 nM in assay [1]; 103 nM in [2]; 153 nM in assay [3]; 24.3 nM in assay [4]; 77 nM in assay [5]; 59.9 nM in assay [6]. In addition, the dissociation constant (Kd) was 56 nM in [7]; 107 nM in assay [8]; 12.2 nM in assay [9]; 49.2 nM in assay [10]; 21.7 nM in assay [11]; 19.4 nM in assay [12]. Also, the Kd in assay [13] came to 44.4 nM; in assay [14], 5.28 nM; in assay [15], 17.3 nM; in [16] it was 16.4 nM; in [17] it was 38.6 nM; in [18], 5.55 nM. The Kd in assay [19] amounted to 30.5 nM; in [20], 30.1 nM; in assay [21], 69.4 nM; in [22], 6.1 nM.
